Laboratory results taken from the DeepSol protein solubility set.

Assay: soluble on expression in E. coli; label from the status in PepcDB or PDB records

Sequence | soluble on expression in E. coli
IGVFLKDKQKVLVVEESEPFIEEQIRIEGNVYGKKTGHLPYGQVTSKDIDFALEHIEEEKVSRPADPGLIESRKKSRASICEDCPYLPLYNFLRISGVRVAGDMGCSVRSAPEPLSAVDVSFALGSAISVACGFERKGIAVIGDFALAHSGILGLLNAVSEGHEVLVLVLQNEVAAMTGGQKVPDLRKVIEAIVPDVSVFDMDGRKEKEQASGSELSDLITEKLALPGISVIFI | not soluble
MTQVPPSASPADLLAVLERIATALERQGAPAVPANSLDGADAFVWHAAESWLEPVCRVNRVDIALLQGIERQRQTLYDNTLRFAHGLPANNALLWGARGTGKSSLVKAVHASVNQALTAKGAAPVALVEIHREDIPTLPRLLRILAASGRPCLLFCDDLSFDGNDSSYKSLKAVLEGGIEGRPDTVIFYATSNRRHLLAREMVENEQSTALHAGEAVEEKVSLSDRFGLWLGFHNVDQPTYFDIVDGYARAYGLDIETEDLHREAREWSMARGSRSGRTAWQFIQDLAGRLGKTLELEHHHHHH | soluble
MTSRDQGINSELSNRTIQFKEKIHNGIHTEYITDQKHSNNKDREKKYRDGDKINGPQAHSLDITNERRFADNRTMFTQHIEKQRNVNTLNQNDINNSANNANVRENELTYQFQRWGQNHTVRILESSEGIRLKPSDTLVSDRLHEAQHNDVTAQRWVLTEQDERQGQRHQPHEEQENEGKFENDQKDES | soluble
NGLVDSMIKNAIAWQTSHLQIHQSAYLVNPELKDTIPDSQSIVTTLDKHQSVKAVSERFLADGMIASARSSRGIRINGIHLEQEQKITPLSEHIIDGYWLDEEGRNPILVSQKTAKRLKLRVGSKVILTLSDINGDVSGAAFRVKGIFKTPSTTFDDGNVYVRKADLEKIAGIAGAHEIAILLNANDDDVLQNIVSFTRTLTDDGSGKPLTVRTWLEIQPLLSTMMSSMDISNQ | not soluble
MGSDKIHHHHHHMTVKAKRFRIGVEGATTDGREIQREWLVQMAASYNPTVYTALINLEHIKSYLPESTFNRYGRVTGLVAEEIQDGPLAGKMALYADIEPTDALVELVKKGQKLFTSMEVSTKFADTGKAYLVGLGATDDPASLGTEMLAFSASAAHNPLANRKQNPENLFSEAVETLIELEEVQDEKPSLFARVTALFTKKEQTDEARFSDVHKAVELVASEQQNLSERTDKSLSEQDKRLSELESSLQEQLAAFAELEQKLSSEDSRKDYRQRAPGGDAPAGTLTNC | not soluble
MVTKTTLASATSGLLLLAVVAMSGCTPRPQGPGPAAEKFFAALAIGDTASAAQLSDNPNEAREALNAAWAGLQAAHLDAQVLSAKYAEDTGTVAYRFSWHLPKDRIWTYDGQLKMARDEGRWHVRWTTSGLHPKLGEHQTFALRADPPRRASVNEVGGTDVLVPGYLYHYSLDAGQAGRELFGTAHAVVGALHPFDDTLNDPQLLAEQASSSTQPLDLVTLHADDSNRVAAAIGQLPGVVITPQAELLPTDKHFAPAVLNDVKKAVVDELDGKAGWRVVSVNQNGVDVSVLHEVAPSPASSVSITLDRVVQNAAQHAVNTRGGKAMIVVIKPSTGEILAIAQNAGADADGPVATTGLYPPGSTFKMITAGAAVERDLATPETLLGCPGEIDIGHRTIPNYGGFDLGVVPMSRAFASSCNTTFAELSSRLPPRGLTQAARRYGIGLDYQVDGITTVTGSVPPTVDLAERTEDGFGQGKVLASPFGMALVAATVAAGKTPVPQLIAGRPTAVEGDATPISQKMIDALRPMMRLVVTNGTAKEIAGCGEVFGKTGEAEFPGGSHSWFAGYRGDLAFASLIVGGGSSEYAVRMTKVMFESLPPGYLA | not soluble
MMSAPKITFIGAGSTIFVKNILGDVFHREALKTAHIALMDIDPTRLEESHIVVRKLMDSAGASGKITCHTQQKEALEDADFVVVAFQIGGYEPCTVTDFEVCKRHGLEQTIADTLGPGGIMRALRTIPHLWQICENMTEVCPDATMLNYVNPMAMNTWAMYARYPYIKQVGLCHSVQGTAEELARDLNIDPATLRYRCAGINHMAFYLELERKTADGSYVNLYPELLAAYEAGQAPKPNIHGNTRCQNIVRYEMFKKLGYFVTESSEHFAEYTPWFIKLGREDLIERYKVPLDEYPKRCVEQLANWHKELEEYKNASRIDIKPSREYASTIMNAIWTGEPSVIYGNVRNDGLIDNLPQGCCVEVACLVDANGIQPTKVGTLPSHLAALMQTNINVQTLLTEAILTENRDRVYHAAMMDPHTAAVLGIDEIYALVDDLIAAHGDWLPSWLHR | not soluble
MGSDKIHHHHHHMARILIIRFSALGDVAMTIPVVHSLAVQYPQLEITVLSRAVWQPLFQGLPANVSFIGADLTGKHKGLWGLNTLYSELKAKHFDYVADFHHVLRTKYLCLRFRLANIPVASIYKGRVGKEKLVRRRHKVLENQKSSFRRYADVLEKLGFPVLLNFSSIYGDEKGNFAEIEPVTGAKDNLKWIGIAPFAKHMGKIYPIELQEQVVAHFAADPKVKVFLFGGGKSEQEVFDGWVAKYPTVVSMIGKLNMRTELNLMSHLDVMLSMDSANMHLASLVNIPVISVWGATHPYAGFMGWKQLPVNTVQFDLSCRPCSVYGQKPCWRGDYACLREIKPEQVIAKIEGIIN | not soluble
MILNNESNKKKKFEQFFIMTYPKVKAFAWKLLKSEEDAEDIAQDIFAKLWTNPEIWENQETWNSYIYTMVRNHIYNFLKHKSIRQTYQEQCTKEEPAISETDIHDQLYAKESELLIKLTIANMPEQRRKIFRMSRTQEKSNQEIADELNISIRTVERHIYLALIDLKKVLLTLFFFYLG | not soluble
MGSDKIHHHHHHAMSNKPVVLQGQIEATEIRISGKLPGRIDTFLVREGQYVKMGDTLVVINSPEAWAKFQQVNALEDIAKFQNKKIDDGTRRQIVRSVEELWNKSKSDLQLATVTYDRIQALYKDSVVTSQRKDEVEAMYKAAVAAERAAHQQFLLVKDGAQKEDKESARSLVDAARGTVNEVQALLMDARLTAPEDGQISTIYPKRGELVGAGTPIMSLVVLDDCHVVLNVREDYMPYFRMNENFMGDIPALDVKNKAFKINYISPLGSFATWRSTKQTGTYDMKTFEIHALPVEPMEGLRPGMSVLVNLDELK | not soluble
MSLYLCEEHFKEYFERKVARTIEKYKLASKDERILVAVSGGKDSAVTAYVLKKLGYKIECLHLNLGIGEYSEKSEIYAKKQCEFIGAPLNIIRVKELLGYGIGEVRTSRPTCSYCGLTKRYIMNKFAYDNGFDAVATGHNLDDEASFLMNNLLHWNTEYLAKGGPLLPGEGKFVKKIKPLYELTEREVVAYAIAVGLEYIVEECPYARGATTLDMKEVLNELEEKRPGTKFNFVRGFLRKKKLFEPEVKGKDLKECKICGMPASGEICSFCKFWKLGKPLTFKIKEGHHHHHH | soluble
MTETDFKLKYWGNQEQDYILPTVGLGREYLVLGKLLISLSKWRAKGLIDFDVYLRPTGVGTLTNTINYEYYKGLEDKYDLTLYIRAKDSYYPLLWIDITGSSWTEEQSKERYGESIYAILSVKVETAKKYDVLGRVFFIHYNDTEDKLKCISALQILNLERQNKIKKDKFERGAKSEYYLIPTSYWKNLTELRIALRGFYQSFKEYLARSNK | soluble
MIEQPDSKSAKPLYKQLEAALKEAIARGEYKPGQQIPTENELSVRWQVSRVTVRKALDALTRENLLTRVSGKGTFVSGEKFQRSMTGIMSFSELCQSQGRRPGSRTIKSVFESVDDETKALLNMNDGEKAVVIERIRYADDVAVSLETVHLPPRFAFLLDEDLNNHSLYECLREKYHLWFTHSRKMIELVYASFEVAHYLGVNEGYPLILIKSEMIDNKGELSCVSQQLIVGDKIRFTV | not soluble
MAHHHHHHMSQLAHNVNLSIFEPISHHRANRIVCTIGPSTQSVEALKGLIRSGMSVARMNFSHGSHEYHQTTINNLRAAATELGAHIGLALDTKGPEIRTGLFKDGGIALAPGDTVLVTSDPAFEKIGTKEKFYIEYPRLSITVRPGGFIYIDDGVLSLKVLSKEDEYTLKCYVNNAHFLTDRKGCNLPGCEVDLPAVSEKDREDLKFGVEQGIDMVFASFIRTAEQVQEVREALGEKGKDILIISKIENHQGVQNIDGIIEASDGIMVARGDLGVEIPAEKVVVAQMILISKCNVAGKPVICATQMLESMTTNPRPTRAEVSDVANAVFNGADCVMLSGETAKGKYPNEVVQYMARICLEAQSATNQAVMFNSIKKMQKLPMSPEEAVCSSAVNSVYEVRAKALLVLSNSGRSARLASKYRPDCPIICATTRMRTCRQLTITRSVDAVFYDAERYGEDENKEKRVQLGVDCAKKKGYVVPGDLMVVVHADHKVKGYPNQTRIIYVS | not soluble
MSWKIIEKYRRILAQEEGNSPKRRGGKLTVCLVYPNRYGVAMSNLGFQAVHALLNAESDILCERAFLPDPDDLREYRRSGARLLSLESQEPLSSFDIIAFSVSFESDYLNIPVIFDLAGIPALAAERTGSHPLVMGGGAALFLNPEPVADFLDLIVVGEGEAILPTFLDHIRADGIGDRAMFLAGVAGLPGIYVPSLYATEYDGARLVSREAKDGAPEQVKRIWMAEPDGRATVSEILTPGTEFSDMYLVEVSRGCGRGCRFCAAGFIYHPYRQRSLDAVKAAVAEGLSHRRKIGLVGAAVSDFREIGELCRHILAEGGTVSVSSLRIDRLDEGMIEVLKASGHKTVALAPEGGSQRIRDLINKNLTEEQILAACDLLIGHDILNLKLYFIIGLPTETMDDLEEMALLVEKIRKRVIAAARKNKRLGEIILSVNPFVPKPFTPFQWCGMEDTPSLEKKLKYLQQTVGRLSNVRLIAESPKDAWLQALLSRGDRRLSGFLLRAAELGNWKRAAREFPVDTDFLVHRTIPLDEMLPWDVIASADAERLRREYLKATPPRLEHHHHHH | not soluble
MGSDKIHHHHHHMKDEILIRYINKHCTATEEKEILEWLKEKDNRQRLFELEQIWGLKAEMRFSDKGRMDEAYRQLSRQLGLSGQIEKREKPIQRFTVREWWKYAAVLVAVCLFATNLFYITKEEPEAYNTVVVPKGQRVSLLLSDGTTVWLNAESRFSYPAKFSEKYRTVTLEGEGYFEVAHNPKCPFTVKLPMLNIRVLGTKFNAKAYLDEPSWITLKEGSVEVSTLDDRSKERMSPNDQVYYTVSDGLVLIRNSAQANVDSWTTGDLRFDNKTLKEMAKVIERRYDVKIRIMDSSLVEEYFTCHFRKDLTIAQAMELLKETRRVDYRIEKKTVYLYKK | not soluble
MSLSTPAVQALSHLVRDVTMKSIVLSAFGTMPIVDERPLPVAGPQEILIRMTHASLNPIDRRIAEGFFKDRFEHRFPLTLGIDGAGVVESIGEQVSDFEVGDSVFGRFLHSYVGNGSFSEYVAISADATLLHTPLGVPPALAAALPTAATTALQAVESLGLPPGSVVLIMGATGGVGTFAVQLARAKGYQVLASASTEAAPWLAQLGVEHVFDRTQNVPERLSTGWPAGINGLIDLVNPAPAFAELVSCIAPGGTALSSIWSATADVAAARGVRAVNLEMLPNREDLRTLARQVLSGSLRVVIDKHISLEAVPAVMSQRQAGGARGKTVIDIAEGHHHHHH | soluble
MSKAIKQNLADSKKMSAELFCLTYGAMVTEMLKDYEDPKDVTIQLDKMGFNMGTRLADDFLAKNANVPRCVDTRQIADVLCRNAIPCYLGISATASSWTSGDREFTITLEANPLTELVQVPAHLVSAGLSYSQLIAGAIRGALEAVHFKVYASATDTGANTEIRIRFDQVLKDSLPAGEDD | not soluble
MKCSWREGNKIQLLENGEQYYPAVFKAIGEAQERIILETFIWFEDNVGKQLHAALLAAAQRGVKAEVLLDGYGSPDLSDEFVNELTAAGVVFRYYDPRPRLFGMRTNVFRRMHRKIVVIDARIAFIGGLNYSAEHMSSYGPEAKQDYAVRLEGPIVEDILQFELENLPGQSAARRWWRRHHKAEENRQPGEAQVLLVWRDNEEHRDDIERHYLKMLTQAQREVIIANAYFFPGYRFLHALRKAARRGVRIKLIIQGEPDMPIVRVGARLLYNYLVKGGVQVFEYRRRPLHGKVALMDDHWATVGSSNLDPLSLSLNLEANVIIHDRHFNQTLRDNLNGIIAADCQQVDETMLPKRTWWNLTKSVLAFHFLRHFPALVGWLPAHTPRLTQVDPPAQPTMETQDRVETENTGVNP | not soluble
